Source: US20160109459A1, “Compositions And Methods For Heparan Sulfate As A Biomarker For Transplant Rejection” (Duke University, priority 2012, published 2016)

Biological target: T1, human TLR4 (Homo sapiens, UniProt O00206)
T1 construct: expressed in transfected cells; host or cells: HEK 293 (gift from Dr. Michael Fessler, NIEHS)
Assay: IL-8 production by ELISA in HEK TLR4-MD2-CD14 cells
Assay type: cell-based
Details: HS pre-treated with heparanase
Description: HEK cell lines stably expressing CD14 and MD2 alone (HEK MD2-CD14), or co-expressed with human TLR2 (HEK TLR2-MD2-CD14) or human TLR4 (HEK TLR4-MD2-CD14) were transfected with a plasmid encoding firefly luciferase (F) under control of the NF-κB promoter along with a plasmid expressing Renilla luciferase (R) under control of the thymidine kinase promoter as a transfection control. Cell lines were cultured for 6 hours with media alone, LPS (100 ng/mL), HS (100 μg/mL), or Pam3CSK4 (2 μg/mL). […] FIG. 5B is a graph showing results supernatants analyzed for IL-8 production by ELISA. […] Experiments were performed in triplicate or quadruplicate. Results are representative of two to three independent experiments.
HEK 293 cell lines co-expressing human CD14, MD2 and TLR4 or TLR2 were a kind gift from Dr. Michael Fessler (NIEHS, Research Triangle Park, N.C., USA). […]
Thus, to determine whether if TLR4 was sufficient for HS activity, the ability of HS to activate human epithelial kidney (HEK) cell lines stably transfected to express human TLR4 or human TLR2 in addition to the co-receptors CD14 and MD2 was tested. […] The ratio of luminescence produced by firefly luciferase to Renilla luciferase (F/R) was then measured in response to media alone, LPS, HS, and Pam3CSK4. The production of IL-8, which is downstream of NF-κB activation, by ELISA was also measured. […]

T1 sequence (O00206 24-839): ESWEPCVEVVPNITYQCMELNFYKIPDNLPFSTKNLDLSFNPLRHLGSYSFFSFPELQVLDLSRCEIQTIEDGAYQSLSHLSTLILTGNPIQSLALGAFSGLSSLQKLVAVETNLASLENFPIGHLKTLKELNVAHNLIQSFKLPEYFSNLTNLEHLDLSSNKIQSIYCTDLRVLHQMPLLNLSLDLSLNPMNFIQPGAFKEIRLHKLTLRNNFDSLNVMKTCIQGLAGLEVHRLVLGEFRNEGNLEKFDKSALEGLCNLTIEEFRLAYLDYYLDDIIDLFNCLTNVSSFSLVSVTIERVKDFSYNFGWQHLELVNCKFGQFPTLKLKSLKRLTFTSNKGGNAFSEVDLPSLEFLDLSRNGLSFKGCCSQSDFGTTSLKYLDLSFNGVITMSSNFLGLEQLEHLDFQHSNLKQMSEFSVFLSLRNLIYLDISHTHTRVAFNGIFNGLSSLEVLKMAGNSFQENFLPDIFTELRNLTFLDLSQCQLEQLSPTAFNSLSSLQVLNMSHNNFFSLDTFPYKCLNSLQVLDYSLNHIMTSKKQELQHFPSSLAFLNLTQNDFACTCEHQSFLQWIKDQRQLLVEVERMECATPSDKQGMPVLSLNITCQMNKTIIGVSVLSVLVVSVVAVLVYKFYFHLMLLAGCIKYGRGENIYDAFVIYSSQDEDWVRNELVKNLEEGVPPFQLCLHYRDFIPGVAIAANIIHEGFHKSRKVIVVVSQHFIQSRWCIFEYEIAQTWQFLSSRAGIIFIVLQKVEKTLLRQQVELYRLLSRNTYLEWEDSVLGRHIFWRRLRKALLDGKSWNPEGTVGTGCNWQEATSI
T1 sequence (Q9Y6Y9 17-160 partner limits assumed): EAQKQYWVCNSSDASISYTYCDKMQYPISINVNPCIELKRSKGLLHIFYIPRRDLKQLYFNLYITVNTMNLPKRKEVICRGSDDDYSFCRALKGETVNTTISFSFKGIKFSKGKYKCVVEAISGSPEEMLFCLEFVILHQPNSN

- effect of pre-treatment on HS stimulation of IL-8 expression: significantly reduced
B1: Heparanase: heparinase III from Flavobacterium heparinum (Sigma), enzyme that degrades heparan sulfate (protein, UniProt Q59289 25-659, looked up)
Heparin-sulfate lyase: QSSSITRKDFDHINLEYSGLEKVNKAVAAGNYDDAAKALLAYYREKSKAREPDFSNAEKPADIRQPIDKVTREMADKALVHQFQPHKGYGYFDYGKDINWQMWPVKDNEVRWQLHRVKWWQAMALVYHATGDEKYAREWVYQYSDWARKNPLGLSQDNDKFVWRPLEVSDRVQSLPPTFSLFVNSPAFTPAFLMEFLNSYHQQADYLSTHYAEQGNHRLFEAQRNLFAGVSFPEFKDSPRWRQTGISVLNTEIKKQVYADGMQFELSPIYHVAAIDIFLKAYGSAKRVNLEKEFPQSYVQTVENMIMALISISLPDYNTPMFGDSWITDKNFRMAQFASWARVFPANQAIKYFATDGKQGKAPNFLSKALSNAGFYTFRSGWDKNATVMVLKASPPGEFHAQPDNGTFELFIKGRNFTPDAGVFVYSGDEAIMKLRNWYRQTRIHSTLTLDNQNMVITKARQNKWETGNNLDVLTYTNPSYPNLDHQRSVLFINKKYFLVIDRAIGEATGNLGVHWQLKEDSNPVFDKTKNRVYTTYRDGNNLMIQSLNADRTSLNEEEGKVSYVYNKELKRPAFVFEKPKKNAGTQNFVSIVYPYDGQKAPEISIRENKGNDFEKGKLNLTLTINGKQQLVLVP
